This note sets out measurements from patent US20260041702A1.

The target in assay [1] is TRFE receptor, TRF1, on Rat2 fibroblasts (rat) (UniProt Q99376). Description: HATRIC-LRC (LRC-TriCEPS) ligand-receptor capture on Rat2 fibroblasts, LC-MS/MS; positive control of the screen.
In assay [2] the target is CCN1 found in the HEK293A cell screen (human) (UniProt O00622). Description: HATRIC-LRC (LRC-TriCEPS) ligand-receptor capture on HEK293A cells, LC-MS/MS; reference BSA control ligand.
The target in assay [3] is GPC1 on HEK293A cells (human) (UniProt P35052). Described as above.
In assay [4] the target is GPC4 on HEK293A cells (human) (UniProt O75487). The description is as above.
For assay [5], the target named is PTK7 on HEK293A cells (human) (UniProt Q13308). The description is as above.
The target of assay [6] is CCN1 found in the HEK293A cell screen (human) (UniProt O00622). Description: HATRIC-LRC (LRC-TriCEPS) ligand-receptor capture on HEK293A cells, LC-MS/MS; reference TRFE control ligand.
Assay [7] has as its target GPC1 on HEK293A cells (human) (UniProt P35052). The description is as above.
Assay [8] addresses GPC4 on HEK293A cells (human) (UniProt O75487). The assay is described as above.
Assay [9] concerns the target PTK7 on HEK293A cells (human) (UniProt Q13308). The assay is described as above.
Assay [10] deals with CCN1 found in the Rat2 cell screen (rat) (UniProt Q9ES72). As to the kind of experiment: HATRIC-LRC (LRC-TriCEPS) ligand-receptor capture on Rat2 fibroblasts, LC-MS/MS; reference BSA control ligand.
The target in assay [11] is GPC1 on Rat2 fibroblasts (rat) (UniProt P35053). Described as above.
Assay [12] concerns the target PTK7 on Rat2 fibroblasts (rat). The description is as above.
The target in assay [13] is CCN1 found in the Rat2 cell screen (rat) (UniProt Q9ES72). Description: HATRIC-LRC (LRC-TriCEPS) ligand-receptor capture on Rat2 fibroblasts, LC-MS/MS; reference TRFE control ligand.
The target in assay [14] is GPC1 on Rat2 fibroblasts (rat) (UniProt P35053). The assay is described as above.
Assay [15] deals with PTK7 on Rat2 fibroblasts (rat). The assay is described as above.

Sequence of UniProt O00622 (O00622 25-381 limits assumed): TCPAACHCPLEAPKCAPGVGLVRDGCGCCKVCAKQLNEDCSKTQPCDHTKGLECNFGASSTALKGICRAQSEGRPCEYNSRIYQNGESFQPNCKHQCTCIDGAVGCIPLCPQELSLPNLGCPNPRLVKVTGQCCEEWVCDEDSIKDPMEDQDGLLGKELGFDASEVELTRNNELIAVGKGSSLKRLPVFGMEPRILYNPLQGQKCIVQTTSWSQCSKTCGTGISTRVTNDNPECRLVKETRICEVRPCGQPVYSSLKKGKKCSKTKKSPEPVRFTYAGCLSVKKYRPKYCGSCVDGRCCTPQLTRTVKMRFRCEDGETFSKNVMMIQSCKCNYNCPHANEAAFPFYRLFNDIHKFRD
Sequence of UniProt Q9ES72 (Q9ES72 25-379 limits assumed): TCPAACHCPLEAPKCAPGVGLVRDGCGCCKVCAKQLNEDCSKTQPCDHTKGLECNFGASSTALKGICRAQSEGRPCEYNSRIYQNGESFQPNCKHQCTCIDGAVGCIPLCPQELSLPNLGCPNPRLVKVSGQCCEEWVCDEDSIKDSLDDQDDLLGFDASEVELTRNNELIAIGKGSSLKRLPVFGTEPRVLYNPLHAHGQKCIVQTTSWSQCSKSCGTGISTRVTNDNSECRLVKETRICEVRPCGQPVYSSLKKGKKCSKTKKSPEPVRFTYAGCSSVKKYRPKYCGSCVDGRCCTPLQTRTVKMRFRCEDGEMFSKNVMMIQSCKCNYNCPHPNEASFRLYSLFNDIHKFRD
Sequence of UniProt P35052 (P35052 24-530 limits assumed): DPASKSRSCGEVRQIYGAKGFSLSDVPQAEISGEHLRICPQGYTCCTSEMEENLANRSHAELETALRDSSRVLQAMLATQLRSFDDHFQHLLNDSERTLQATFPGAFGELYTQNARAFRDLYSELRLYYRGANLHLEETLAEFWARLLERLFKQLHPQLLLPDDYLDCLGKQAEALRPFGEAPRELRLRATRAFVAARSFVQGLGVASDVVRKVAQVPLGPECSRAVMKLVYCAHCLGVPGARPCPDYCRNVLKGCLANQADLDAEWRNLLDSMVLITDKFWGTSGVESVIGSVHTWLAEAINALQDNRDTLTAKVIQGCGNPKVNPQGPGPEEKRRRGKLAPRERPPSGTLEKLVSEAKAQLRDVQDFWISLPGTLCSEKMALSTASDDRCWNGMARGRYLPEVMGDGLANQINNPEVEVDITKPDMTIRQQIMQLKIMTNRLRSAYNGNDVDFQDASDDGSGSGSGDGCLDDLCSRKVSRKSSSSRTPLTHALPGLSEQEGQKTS
Sequence of UniProt Q13308 (Q13308 31-1070 limits assumed): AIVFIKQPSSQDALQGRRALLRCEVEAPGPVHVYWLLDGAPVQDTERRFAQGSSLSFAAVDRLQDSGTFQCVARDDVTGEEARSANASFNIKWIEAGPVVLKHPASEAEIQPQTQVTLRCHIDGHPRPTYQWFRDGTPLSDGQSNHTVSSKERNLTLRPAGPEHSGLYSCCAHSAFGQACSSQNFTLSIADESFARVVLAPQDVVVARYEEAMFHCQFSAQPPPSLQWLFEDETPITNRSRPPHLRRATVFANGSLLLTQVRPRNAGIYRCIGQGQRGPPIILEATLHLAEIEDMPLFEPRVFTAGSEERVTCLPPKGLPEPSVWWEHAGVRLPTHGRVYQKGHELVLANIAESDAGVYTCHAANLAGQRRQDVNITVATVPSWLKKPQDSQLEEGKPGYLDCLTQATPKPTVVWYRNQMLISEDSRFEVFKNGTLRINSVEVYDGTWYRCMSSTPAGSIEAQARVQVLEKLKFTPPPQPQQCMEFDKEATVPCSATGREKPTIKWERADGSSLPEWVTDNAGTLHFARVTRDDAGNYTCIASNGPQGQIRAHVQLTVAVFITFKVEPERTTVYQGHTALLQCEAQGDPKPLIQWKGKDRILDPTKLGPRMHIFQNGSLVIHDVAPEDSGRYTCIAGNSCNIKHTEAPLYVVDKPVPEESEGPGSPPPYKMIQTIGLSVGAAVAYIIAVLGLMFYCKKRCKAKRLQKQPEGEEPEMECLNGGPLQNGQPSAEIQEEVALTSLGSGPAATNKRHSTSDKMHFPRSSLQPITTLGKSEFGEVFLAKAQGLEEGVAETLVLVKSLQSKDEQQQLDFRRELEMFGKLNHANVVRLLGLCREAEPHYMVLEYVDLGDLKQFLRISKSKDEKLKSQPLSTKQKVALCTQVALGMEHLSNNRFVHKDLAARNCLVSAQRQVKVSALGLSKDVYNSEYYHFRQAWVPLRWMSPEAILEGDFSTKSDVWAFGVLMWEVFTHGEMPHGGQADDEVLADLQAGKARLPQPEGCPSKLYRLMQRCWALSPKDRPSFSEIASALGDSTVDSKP
Sequence of UniProt P35053 (P35053 24-530): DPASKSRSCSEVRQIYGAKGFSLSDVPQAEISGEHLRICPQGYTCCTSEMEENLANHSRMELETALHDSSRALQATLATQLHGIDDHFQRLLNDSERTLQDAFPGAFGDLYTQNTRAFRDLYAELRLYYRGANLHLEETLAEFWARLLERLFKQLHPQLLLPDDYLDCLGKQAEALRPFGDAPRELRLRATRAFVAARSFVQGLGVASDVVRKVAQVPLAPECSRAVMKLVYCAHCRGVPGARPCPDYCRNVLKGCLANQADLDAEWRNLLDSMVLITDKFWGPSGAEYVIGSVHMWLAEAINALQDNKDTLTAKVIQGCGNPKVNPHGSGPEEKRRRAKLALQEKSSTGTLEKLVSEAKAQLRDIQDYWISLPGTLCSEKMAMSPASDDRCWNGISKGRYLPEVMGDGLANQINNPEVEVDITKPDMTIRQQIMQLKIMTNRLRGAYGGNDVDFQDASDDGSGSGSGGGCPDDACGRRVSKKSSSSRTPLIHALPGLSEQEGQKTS
Sequence of UniProt O75487 (O75487 19-529 limits assumed): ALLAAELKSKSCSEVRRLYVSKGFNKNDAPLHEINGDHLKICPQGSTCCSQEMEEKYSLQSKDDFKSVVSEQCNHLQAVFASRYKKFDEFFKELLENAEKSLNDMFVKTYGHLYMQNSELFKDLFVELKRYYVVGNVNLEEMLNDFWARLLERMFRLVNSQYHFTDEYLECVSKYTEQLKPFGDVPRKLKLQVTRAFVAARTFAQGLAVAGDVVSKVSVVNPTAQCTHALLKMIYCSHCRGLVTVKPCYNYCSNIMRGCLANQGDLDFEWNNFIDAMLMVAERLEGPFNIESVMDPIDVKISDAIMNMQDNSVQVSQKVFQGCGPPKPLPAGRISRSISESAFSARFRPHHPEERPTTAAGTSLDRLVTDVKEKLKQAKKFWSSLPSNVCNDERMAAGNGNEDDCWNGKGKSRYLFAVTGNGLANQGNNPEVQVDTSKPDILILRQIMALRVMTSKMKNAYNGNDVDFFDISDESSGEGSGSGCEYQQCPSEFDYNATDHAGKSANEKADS
Sequence of UniProt Q99376 (Q99376 whole entry): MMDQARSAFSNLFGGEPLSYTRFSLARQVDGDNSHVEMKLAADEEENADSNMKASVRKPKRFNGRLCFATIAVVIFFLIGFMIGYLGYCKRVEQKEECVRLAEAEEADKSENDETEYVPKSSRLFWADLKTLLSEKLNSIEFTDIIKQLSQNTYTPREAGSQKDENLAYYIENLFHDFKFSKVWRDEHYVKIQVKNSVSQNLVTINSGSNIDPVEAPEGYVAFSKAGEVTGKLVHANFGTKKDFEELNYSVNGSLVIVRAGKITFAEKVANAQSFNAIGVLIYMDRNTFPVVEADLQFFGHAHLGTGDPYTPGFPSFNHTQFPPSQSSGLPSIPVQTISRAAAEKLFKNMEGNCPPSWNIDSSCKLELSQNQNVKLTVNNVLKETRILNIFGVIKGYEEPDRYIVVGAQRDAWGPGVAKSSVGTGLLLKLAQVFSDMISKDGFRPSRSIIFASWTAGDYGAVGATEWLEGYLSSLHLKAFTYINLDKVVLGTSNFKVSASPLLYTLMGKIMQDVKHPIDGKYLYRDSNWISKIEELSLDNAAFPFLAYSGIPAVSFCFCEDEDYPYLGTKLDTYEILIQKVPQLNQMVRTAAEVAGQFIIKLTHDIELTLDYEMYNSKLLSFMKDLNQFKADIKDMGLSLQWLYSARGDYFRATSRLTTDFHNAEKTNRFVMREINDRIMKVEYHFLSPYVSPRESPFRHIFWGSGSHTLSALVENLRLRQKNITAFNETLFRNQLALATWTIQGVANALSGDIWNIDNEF

Regarding “transferrin (TRFE) coupled to TriCEPS v3.0 (ligand)”, the log 2 (FC), TRFE group against d34CCN2 group (log2 fold change) in assay [1] is -2.8.

B1: recombinant, human C-terminal (domains III-IV) CCN2 coupled to TriCEPS v3.0 (ligand, UniProt P29279 197-349, looked up)
chain: ANCLVQTTEWSACSKTCGMGISTRVTNDNASCRLEKQSRLCMVRPCEADLEENIKKGKKCIRTPKISKPIKFELSGCTSMKTYRAKFCGVCTDGRCCTPHRTTTLPVEFKCPDGEVMKKNMMFIKTCACHYNCPGDNDIFESLYYRKMYGDMA
modifications: coupled to the trifunctional TriCEPS v3.0 molecule (site of coupling not stated)
Regarding B1, the log 2 (FC) enrichment relative to BSA (log2 fold change) was 5.63 in assay [2]; 2.85 in assay [3]; 2.85 in assay [4]; 3.26 in [5]; 3.4 in assay [10]; 4.2 in [11]. The molecule also had a log 2 (FC) enrichment relative to BSA (log2 fold change) in [12] of 2.7. For the same molecule, the log 2 (FC) enrichment relative to TRFE (log2 fold change) in [6] is 4.73; in assay [7], 4.19; in assay [8], 2.84; in assay [9], 3.09; in assay [13], 4.1; in [14], 4.4. Moreover, in assay [15], the log 2 (FC) enrichment relative to TRFE (log2 fold change) was 3.
